Molecular target: papain (UniProt P00784)
Assay: enzyme inhibition assay (Dixon plot); various amounts of recombinant protein with 10 ug papain (1.24 uM final in 350 ul), 0.1 M sodium phosphate pH 6.0, 1 mM EDTA, 2 mM beta-mercaptoethanol, 37°C, substrate BANA; Ki from plots of 1/v versus [I]

UniProt P00784, sequence (P00784 134-345): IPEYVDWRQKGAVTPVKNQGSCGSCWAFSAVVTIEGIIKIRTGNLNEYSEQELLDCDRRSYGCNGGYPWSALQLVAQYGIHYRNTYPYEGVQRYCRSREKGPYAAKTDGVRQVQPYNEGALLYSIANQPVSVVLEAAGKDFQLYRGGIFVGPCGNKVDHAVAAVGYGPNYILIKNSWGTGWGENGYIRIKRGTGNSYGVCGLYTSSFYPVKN

| Ki [nM] | Substance |
| --- | --- |
| 19 | SiCYS, sesame seed group II phytocystatin (non-fusion recombinant) (natural protein) |
| 79 | SiCYS-N, N-terminal domain of SiCYS (non-fusion recombinant) (domain or fragment) |
